The results in this text go back to doi:10.1101/2022.10.08.511438.

Experiment [1] addresses dihydrolipoyl succinyltransferase (E2o), core of the oxoglutarate dehydrogenase complex, Chaetomium thermophilum (C. thermophilum (endogenous in mycelium lysate)). Description: label-free MS quantitation.
Experiment [2] shares this target. As to the kind of experiment: cryo-EM structure.

Substance “dihydrolipoyl dehydrogenase (E3), Chaetomium thermophilum (enzyme)” had a stoichiometry N (E3 dimers relative to 24 E2o subunits) in experiment [1] of 4.
As usually defined, the stoichiometry N is a count of units in the complex or per binding partner. Regarding “dihydrolipoyl succinyltransferase (E2o), core of the oxoglutarate dehydrogenase complex, Chaetomium thermophilum (enzyme)”, the stoichiometry N in experiment [2] is 24 subunits.
In experiment [1], “oxoglutarate dehydrogenase (E1o) of the oxoglutarate dehydrogenase complex (OGDHc), Chaetomium thermophilum (enzyme)” came in with a stoichiometry N (E1o dimers around the 24-mer E2o core) of 9 and a stoichiometry N (E1o dimers relative to 24 E2o subunits) of under 10.
